Results reported in publication PMC10303457 (2023).
No end group written: not given here.

T1: Human IMPα3 aa 64–521 (lacking the IMPβ binding domain) (human, UniProt O00629 64-521)
T1 chain: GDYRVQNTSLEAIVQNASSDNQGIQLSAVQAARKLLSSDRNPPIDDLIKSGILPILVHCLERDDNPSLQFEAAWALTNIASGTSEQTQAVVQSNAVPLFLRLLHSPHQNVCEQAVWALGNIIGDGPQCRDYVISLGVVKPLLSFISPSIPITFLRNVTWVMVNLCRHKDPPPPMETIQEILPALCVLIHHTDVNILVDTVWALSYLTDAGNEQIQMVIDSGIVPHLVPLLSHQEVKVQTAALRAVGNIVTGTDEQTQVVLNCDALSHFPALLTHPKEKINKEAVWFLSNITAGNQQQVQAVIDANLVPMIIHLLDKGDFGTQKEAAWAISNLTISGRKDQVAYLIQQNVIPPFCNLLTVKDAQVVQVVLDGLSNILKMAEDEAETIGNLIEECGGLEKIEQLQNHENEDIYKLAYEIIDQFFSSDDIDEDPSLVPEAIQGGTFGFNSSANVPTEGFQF


Tests used:
Assay in all cases: FP
[1] = molecular target: T1, Human IMPα3 aa 64–521 (lacking the IMPβ …)
[2] = molecular target: Human IMPα1 aa 71–529 (lacking the IMPβ binding domain) (human, UniProt P52292 71-529)
[3] = molecular target: Human IMPα5 aa 74–538 (lacking the IMPβ binding domain) (human, UniProt P52294 74-538)
Chain of Human IMPα5 aa 74–538 (lacking the IMPβ binding domain) (P52294 74-538): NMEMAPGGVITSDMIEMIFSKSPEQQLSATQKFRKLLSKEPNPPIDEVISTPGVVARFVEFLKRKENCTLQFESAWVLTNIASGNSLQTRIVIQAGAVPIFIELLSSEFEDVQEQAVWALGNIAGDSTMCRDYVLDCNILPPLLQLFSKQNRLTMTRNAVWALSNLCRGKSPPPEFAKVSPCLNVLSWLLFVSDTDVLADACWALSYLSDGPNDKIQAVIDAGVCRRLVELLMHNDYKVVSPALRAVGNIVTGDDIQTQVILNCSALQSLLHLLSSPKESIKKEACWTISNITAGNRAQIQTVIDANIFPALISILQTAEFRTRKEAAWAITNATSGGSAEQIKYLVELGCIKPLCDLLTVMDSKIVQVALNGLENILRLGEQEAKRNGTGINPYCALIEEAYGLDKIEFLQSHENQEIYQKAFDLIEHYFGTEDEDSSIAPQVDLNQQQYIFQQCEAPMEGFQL

Row | Binder | Kd [1] | Kd [2] | Kd [3]
1 | VRRAGKYYSVEYCKRKID (also: FITC-labelled, site not given here) [FITC-labelled HeV M NLS2 peptide] | 11500 nM | – | –
2 | SGKRKKIRTIAAYPLGVGKS (also: FITC-labelled, site not given here) [FITC-labelled HeV M NLS1 peptide] | 2470 nM | 560 nM | 1470 nM
